Positions count from the first letter of the chain named. Numbers in names are those of the source.
B1: rhRKIP C133S mutant, histidine-tagged (natural protein, human, UniProt P30086 1-187, looked up)
chain: MPVDLSKWSGPLSLQEVDEQPQHPLHVTYAGAAVDELGKVLTPTQVKNRPTSISWDGLDSGKLYTLVLTDPDAPSRKDPKYREWHHFLVVNMKGNDISSGTVLSDYVGSGPPKGTGLHRYVWLVYEQDRPLKSDEPILSNRSGDHRGKFKVASFRKKYELRAPVAGTCYQAEWDDYVPKLYEQLSGK
notes: human RKIP (PEBP1), cDNA GenBank NM_002567 in pET28B+, site-directed mutant; Same construct as m1 with the point mutation; source: E. coli BL21(DE3), purified (Ni-NTA)
B2: rhRKIP C168S mutant, histidine-tagged (natural protein, human, UniProt P30086 1-187, looked up)
chain: B1 chain with S133C, C168S
notes: as for B1
B3: rhRKIP Ser153 to alanine mutant, histidine-tagged (natural protein, human, UniProt P30086 1-187, looked up)
chain: B1 chain with S133C, S153A
notes: human RKIP (PEBP1), cDNA GenBank NM_002567 in pET28B+, site-directed mutant; Same construct as m1 with the point mutation; also called S153A; source: E. coli BL21(DE3), purified (Ni-NTA)
B4: rhRKIP Ser153 to aspartate mutant, histidine-tagged (natural protein, human, UniProt P30086 1-187, looked up)
chain: B1 chain with S133C, S153D
notes: human RKIP (PEBP1), cDNA GenBank NM_002567 in pET28B+, site-directed mutant; Same construct as m1 with the point mutation; also called S153D; source: E. coli BL21(DE3), purified (Ni-NTA)
B5: rhRKIP Ser153 to glutamate mutant, histidine-tagged (natural protein, human, UniProt P30086 1-187, looked up)
chain: B1 chain with S133C, S153E
notes: human RKIP (PEBP1), cDNA GenBank NM_002567 in pET28B+, site-directed mutant; Same construct as m1 with the point mutation; also called S153E; source: E. coli BL21(DE3), purified (Ni-NTA)
B6: rhRKIP C168A mutant, histidine-tagged (natural protein, human, UniProt P30086 1-187, looked up)
chain: B1 chain with S133C, C168A
notes: as for B1

Target: the molecule itself
Assay: non-reducing SDS-PAGE; purified rhRKIP in sample loading buffer without β-mercaptoethanol or boiling; Coomassie Brilliant Blue staining or anti-His immunoblot

Stoichiometry N, 2:
B1
B2
B3
B4
B5

Target: the molecule itself
Assay: LC Q-TOF mass spectrometry; purified rhRKIP WT and mutant proteins in buffer at pH 7.4; peaks around 22 kDa (monomer) and 44 kDa (dimer)

Stoichiometry N, 2:
B6

Reference: paper PMC11767649, “Two Cysteines in Raf Kinase Inhibitor Protein Make Differential Contributions to Structural Dynamics In Vitro” (Molecules, 2025)
